Assay results: the supplement of paper PMC10567573

B1: SLC35F2 (parent)
chain: FVAFALCMFCLYSFMPLVIKVTSA

Variants of: B1
Assay: protein stability index of a GFP-peptide fusion (GPS, HEK-293T) (PSI 1-6); higher = more stable
Conditions: c terminus: a fixed tail appended
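Also: lentivirally expressed fusions sorted by FACS into six bins by GFP to DsRed ratio, PSI derived from sequencing read proportions per bin multiplied by bin number.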

Row | Variant | protein stability index
1 | FVAFALCMFCLYSFMPLVIKVTSE | 2.42
2 | FVAFALCMFCLYSFMPLVIKVTSN | 2.63
3 | FVAFALCMFCLYSFMPLVIKVTSR | 1.84
4 | FVAFALCMFCLYSFMPLVIKVTST | 3.11
5 | FVAFALCMFCLYSFMPLVIKVTSI | 2.65
6 | FVAFALCMFCLYSFMPLVIKVTSD | 2.65
7 | FVAFALCMFCLYSFMPLVIKVTSK | 2.04
8 | FVAFALCMFCLYSFMPLVIKVTSS | 2.61
9 | FVAFALCMFCLYSFMPLVIKVTEA | 2.49
10 | FVAFALCMFCLYSFMPLVIKVTPA | 2.96
11 | FVAFALCMFCLYSFMPLVIKVTDA | 2.85
12 | FVAFALCMFCLYSFMPLVIKVTLA | 2.89
13 | FVAFALCMFCLYSFMPLVIKVTCA | 2.9
14 | FVAFALCMFCLYSFMPLVIKVTRA | 2.78
15 | FVAFALCMFCLYSFMPLVIKVTTA | 2.71
16 | FVAFALCMFCLYSFMPLVIKVTIA | 2.45
17 | FVAFALCMFCLYSFMPLVIKVTGA | 3.19
18 | FVAFALCMFCLYSFMPLVIKVTFA | 3.51
19 | FVAFALCMFCLYSFMPLVIKVTQA | 2.39
20 | FVAFALCMFCLYSFMPLVIKVTWA | 2.54
21 | FVAFALCMFCLYSFMPLVIKVTAA | 2.39
22 | FVAFALCMFCLYSFMPLVIKVTYA | 2.03
23 | FVAFALCMFCLYSFMPLVIKVTKA | 2
24 | FVAFALCMFCLYSFMPLVGKVTSA | 3.04

Row | Variant | protein stability index
25 | FVAFALCMFCLYSFMPLVMKVTSA | 2.48
26 | FVAFALCMFCLYSFMPLVKKVTSA | 3.47
27 | FVAFALCMFCLYSFMPLVWKVTSA | 4.11
28 | FVAFALCMFCLYSFMPLVDKVTSA | 2.73
29 | FVAFALCMFCLYSFMPLVPKVTSA | 2.86
30 | FVAFALCMFCLYSFMPLVSKVTSA | 2.42
31 | FVAFALCMFCLYSFMPLVQKVTSA | 3.62
32 | FVAFALCMFCLYSFMPLVHKVTSA | 2.14
33 | FVAFALCMFCLYSFMPLVFKVTSA | 2.69
34 | FVAFALCMFCLYSFMPLVEKVTSA | 2.87
35 | FVAFALCMFCLYSFMPLVTKVTSA | 3.51
36 | FVAFALCMFCLYSFMPLVVKVTSA | 3.21
37 | FVAFALCMFCLYSFMPLVYKVTSA | 1.94
38 | FVAFALCMFCLYSFMPLVLKVTSA | 3.06
39 | FVAFALCMFCLYSFMPLVCKVTSA | 2.7
40 | FVAFALCMFCLYSFMPLVIKCTSA | 1.7
41 | FVAFALCMFCLYSFMPLVIKMTSA | 3.27
42 | FVAFALCMFCLYSFMPLVIKHTSA | 2.9
43 | FVAFALCMFCLYSFMPLVIKPTSA | 2.76
44 | FVAFALCMFCLYSFMPLVIKLTSA | 2.06
45 | FVAFALCMFCLYSFMPLVIKETSA | 3.06
46 | FVAFALCMFCLYSFMPLVIKRTSA | 2.38
47 | FVAFALCMFCLYSFMPLVIKQTSA | 1.85
48 | FVAFALCMFCLYSFMPLVIKWTSA | 3.02

Row | Variant | protein stability index
49 | FVAFALCMFCLYSFMPLVIKNTSA | 4.29
50 | FVAFALCMFCLYSFMPLVIKATSA | 2.26
51 | FVAFALCMFCLYSFMPLVIKITSA | 2.6
52 | FVAFALCMFCLYSFMPLVIKSTSA | 3.11
53 | FVAFALCMFCLYSFMPLVIKYTSA | 3.26
54 | FVAFALCMFCLYSFMPLVIKFTSA | 2.01
55 | FVAFALCMFCLYSFMPLWIKVTSA | 2.6
56 | FVAFALCMFCLYSFMPLSIKVTSA | 2.91
57 | FVAFALCMFCLYSFMPLTIKVTSA | 2.57
58 | FVAFALCMFCLYSFMPLYIKVTSA | 2.54
59 | FVAFALCMFCLYSFMPLRIKVTSA | 3.05
60 | FVAFALCMFCLYSFMPLVIQVTSA | 3.38
61 | FVAFALCMFCLYSFMPLVIFVTSA | 2.03
62 | FVAFALCMFCLYSFMPLVINVTSA | 3.16
63 | FVAFALCMFCLYSFMPLVIGVTSA | 2.9
64 | FVAFALCMFCLYSFMPLVISVTSA | 2.55
65 | FVAFALCMFCLYSFMPLVICVTSA | 3.38
66 | FVAFALCMFCLYSFMPLVILVTSA | 3.04
67 | FVAFALCMFCLYSFMPLVIDVTSA | 2.22
68 | FVAFALCMFCLYSFMPLVIVVTSA | 2.56
69 | FVAFALCMFCLYSFMPLVITVTSA | 3.12
70 | FVAFALCMFCLYSFMPLVIIVTSA | 2.63
71 | FVAFALCMFCLYSFMPLVIYVTSA | 2.76
72 | FVAFALCMFCLYSFMPLVIPVTSA | 2.56

Row | Variant | protein stability index
73 | FVAFALCMFCLYSFMPLVIHVTSA | 1.78
74 | FVAFALCMFCLYSFMPLVIRVTSA | 3.56
75 | FVAFALCMFCLYSFMPLVIEVTSA | 2.71
76 | FVAFALCMFCLYSFMPLVIAVTSA | 2.95
77 | FVAFALCMFCLYSFMPLVIMVTSA | 2.62
78 | FVAFALCMFCLYSFMPLVIKVPSA | 3.35
79 | FVAFALCMFCLYSFMPLVIKVDSA | 2.05
80 | FVAFALCMFCLYSFMPLVIKVLSA | 3.31
81 | FVAFALCMFCLYSFMPLVIKVCSA | 2.54
82 | FVAFALCMFCLYSFMPLVIKVHSA | 3.96
83 | FVAFALCMFCLYSFMPLVIKVQSA | 3.07
84 | FVAFALCMFCLYSFMPLVIKVISA | 2.71
85 | FVAFALCMFCLYSFMPLVIKVYSA | 2.75
86 | FVAFALCMFCLYSFMPLVIKVFSA | 2.36
87 | FVAFALCMFCLYSFMPLVIKVASA | 2.77
88 | FVAFALCMFCLYSFMPLVIKVWSA | 2.77
89 | FVAFALCMFCLYSFMPLVIKVESA | 3.47
90 | FVAFALCMFCLYSFMPLVIKVGSA | 2.96
91 | FVAFALCMFCLYSFMPLVIKVRSA | 3.29
92 | FVAFALCMFCLYSFMPLVIKVVSA | 3.01
93 | FVAFALCMFCLYSFMPLVIKVSSA | 2.33
94 | FVAFALCMFCLYSFMPLVIKVNSA | 3.68
